Test [1] deals with T1, IL-8RB expressed on lentivirally transduced HEK 293T cells (UniProt P25025 1-360, limits assumed).
T1 construct: whole, on cells; also called IL-8R^+ cells; IL-6Rα^-/IL-8R^+ HEK 293T cells
T1 sequence (looked up): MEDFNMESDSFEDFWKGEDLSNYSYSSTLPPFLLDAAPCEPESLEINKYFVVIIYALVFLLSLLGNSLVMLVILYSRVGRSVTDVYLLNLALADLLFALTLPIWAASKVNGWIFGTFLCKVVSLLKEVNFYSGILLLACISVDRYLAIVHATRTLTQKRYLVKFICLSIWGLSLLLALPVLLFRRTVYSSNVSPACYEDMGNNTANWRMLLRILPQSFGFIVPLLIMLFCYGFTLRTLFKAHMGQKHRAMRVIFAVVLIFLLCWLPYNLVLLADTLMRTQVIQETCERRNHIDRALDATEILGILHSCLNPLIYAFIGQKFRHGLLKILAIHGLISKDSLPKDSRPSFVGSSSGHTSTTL
Put plainly: flow cytometry titration on IL-6Rα-/IL-8R+ HEK 293T cells; IL-6Rα-/IL-8R+ 293T cells (FIG. 7B). How it is done:
(§1) HEK 293T cells were cultured in Dulbecco's modified Eagle's medium (DMEM, Mediatech) supplemented with 10% (Hyclone), 2 mM L-glutamine and 100 U/mL penicillin-streptomycin (Gibco). For surface binding assays, IL-6Rα⁺/IL-8R⁻, IL-6Rα⁻/IL-8R⁺, IL-6Rα⁺/IL-8R⁺, and […] HEK 293T cells were trypsinized for detachment, resuspended in PBSA, and then aliquoted into 96-well plates (1×10⁵ cells per well). Cells were incubated with titrations of various monoclonal or bispecific antibodies for 2 hr at 4° C. with rotation. Cells were then washed and incubated with a 1:50 dilution of fluorescein isothiocyanate (FITC)-conjugated anti-human IgG1 antibody (Sigma-Aldrich, Clone 8c/6-39) in PBSA for 15 min at 4° C. After a final wash, cells were resuspended in PBSA and analyzed on a CytoFLEX flow cytometer (Beckman Coulter). Binding isotherms were fitted to a first-order logistic model and KD values were calculated using GraphPad Prism data analysis software. Mean fluorescence intensity (MFI) of unstimulated cells was subtracted. […]
(§2) To determine whether engineered bispecific binding agents BS1 and BS2 specifically engage target antigens in a physiologically relevant context, antibody binding to IL-6Rα⁺/IL-8R⁻, IL-6Rα⁻/IL-8R⁺, IL-6Rα⁺/IL-8R⁺, and IL-6Rα⁻/IL-8R⁻ lentivirally transduced HEK 293T cells was measured via flow cytometry. […]
In general terms: Flow cytometry measures light scatter and fluorescence of single cells or particles in a stream.

In test [2] the target is T2, IL-6Rα expressed on lentivirally transduced HEK 293T cells (UniProt P08887 20-468, limits assumed).
T2 construct: whole, on cells; also called IL-6Rα^+ cells; IL-6Rα^+/IL-8R^- HEK 293T cells
T2 sequence (looked up): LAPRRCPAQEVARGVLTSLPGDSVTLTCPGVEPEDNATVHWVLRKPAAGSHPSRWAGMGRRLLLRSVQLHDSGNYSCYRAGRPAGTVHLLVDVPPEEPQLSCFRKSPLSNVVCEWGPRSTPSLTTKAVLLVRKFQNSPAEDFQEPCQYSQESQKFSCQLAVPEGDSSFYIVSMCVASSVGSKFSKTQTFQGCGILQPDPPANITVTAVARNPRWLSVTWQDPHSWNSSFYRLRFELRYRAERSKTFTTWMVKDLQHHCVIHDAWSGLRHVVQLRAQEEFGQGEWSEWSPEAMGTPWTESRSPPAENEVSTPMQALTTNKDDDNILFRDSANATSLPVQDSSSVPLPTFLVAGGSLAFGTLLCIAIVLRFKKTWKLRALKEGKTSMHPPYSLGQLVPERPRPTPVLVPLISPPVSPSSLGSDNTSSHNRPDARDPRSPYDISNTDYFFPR
The test is described as follows: flow cytometry titration on IL-6Rα+/IL-8R- HEK 293T cells; IL-6Rα+/IL-8R- 293T cells (FIG. 7A). How it is done:
as §1, §2

The target of test [3] is T1, IL-8RB expressed on lentivirally …. The test is described as follows: competition with 400 nM His-tagged IL-8 on IL-6Rα-/IL-8R+ HEK 293T cells, flow cytometry. The protocol: IL-6Rα⁺/IL-8R⁻ and IL-6Rα⁻/IL-8R⁺ HEK 293T cells were cultured as previously described, and were trypsinized, resuspended in PBSA, and aliquoted into 96-well plates (2×10⁵ cells per well). IL-6Rα⁺/IL-8R⁻ 293T cells were incubated with titrations of various monoclonal or bispecific antibodies in the presence of saturating concentration of biotinylated IL-6 (100 nM) (Acro Biosystem, cat #: IL6-H8218-25UG) for 2 hr at 4° C. with rotation. Cells were then washed and incubated with 1:200 dilution of Alexa Fluor 647-conjugated streptavidin (Fisher Scientific, cat #: S21374) in PBSA for 15 min at 4° C. After a final wash, cells were resuspended in PBSA and analyzed on a CytoFLEX flow cytometer (Beckman Coulter). Curves were fitted to a first-order logistic model and IC₅₀ values were calculated using GraphPad Prism data analysis software. Mean fluorescence intensity (MFI) of unstimulated cells was subtracted. Similarly, IL-6Rα⁻/IL-8R⁺ 293T cells were incubated with titrations of various monoclonal or bispecific antibodies with saturating concentration of His-tagged IL-8 (400 nM) (Sino Biological, cat #: 10098-H08Y-100) for 2 hr at 4° C. with rotation. […] After a final wash, cells were resuspended in PBSA and analyzed on a CytoFLEX flow cytometer (Beckman Coulter). Curves were fitted to a first-order logistic model and IC₅₀ values were calculated using GraphPad Prism data analysis software. […]

The target in test [4] is T2, IL-6Rα expressed on lentivirally …. Put plainly: flow cytometry binding titration on IL-6R+/IL-8R- HEK 293T cells, detected with FITC anti-human IgG1. How it is done: as §1, §2

These results are taken from patent US20220251222A1 (Johns Hopkins, published 2022).

B1: BS2 bispecific antibody (scFv-IgG fusion: 10H2 IgG with tocilizumab scFv on the light chains) (bispecific antibody)
heavy: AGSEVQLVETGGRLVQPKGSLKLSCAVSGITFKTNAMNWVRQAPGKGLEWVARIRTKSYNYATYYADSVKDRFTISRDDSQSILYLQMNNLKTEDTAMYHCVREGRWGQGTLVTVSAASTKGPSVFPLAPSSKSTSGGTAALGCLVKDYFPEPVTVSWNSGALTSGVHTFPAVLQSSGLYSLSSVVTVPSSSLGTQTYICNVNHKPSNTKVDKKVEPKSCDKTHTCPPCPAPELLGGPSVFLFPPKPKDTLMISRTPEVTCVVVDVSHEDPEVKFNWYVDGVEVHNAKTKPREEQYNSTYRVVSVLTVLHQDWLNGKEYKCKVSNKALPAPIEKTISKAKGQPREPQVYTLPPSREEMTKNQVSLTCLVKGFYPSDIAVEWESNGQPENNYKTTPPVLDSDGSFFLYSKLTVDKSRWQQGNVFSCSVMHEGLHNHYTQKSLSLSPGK
light: AGSQAVVTQESALTTSPGETVTLTCRSSTGAVTTSNYANWVQEKPDHLFTGLIGGTNNRPPGVPARFSGSLIGDKAALTITGAQIEDEAIYFCALWYSNHLVFGGGTKLTVLRTVAAPSVFIFPPSDEQLKSGTASVVCLLNNFYPREAKVQWKVDNALQSGNSQESVTEQDSKDSTYSLSSTLTLSKADYEKHKVYACEVTHQGLSSPVTKSFNRGECGGGGSGGGGSEVQLQESGPGLVRPSQTLSLTCTVSGYSITSDHAWSWVRQPPGRGLEWIGYISYSGITTYNPSLKSRVTMLRDTSKNQFSLRLSSVTAADTAVYYCARSLARTTAMDYWGQGSLVTVSSGGGGSGGGGSGGGGSDIQMTQSPSSLSASVGDRVTITCRASQDISSYLNWYQQKPGKAPKLLIYYTSRLHSGVPSRFSGSGSGTDFTFTISSLQPEDIATYYCQQGNTLPYTFGQGTKVEIK
notes: Human IgG1-based
As a reminder, the Kd is the equilibrium constant for the complex coming apart. A low value points to higher affinity. In general, IC50 refers to the concentration that gives 50% inhibition. A high value points to weaker potency. Regarding B1, the equilibrium dissociation constant (Kd) in test [1] is 3.5 nM; in test [2], 19 nM. In addition, in test [3], the IC50 was 22 nM.

B2: tocilizumab, recombinant monoclonal hIgG1 (anti-IL-6Rα) (antibody, V domains shown)
VH: EVQLQESGPGLVRPSQTLSLTCTVSGYSITSDHAWSWVRQPPGRGLEWIGYISYSGITTYNPSLKSRVTMLRDTSKNQFSLRLSSVTAADTAVYYCARSLARTTAMDYWGQGSLVTVSS
VL: DIQMTQSPSSLSASVGDRVTITCRASQDISSYLNWYQQKPGKAPKLLIYYTSRLHSGVPSRFSGSGSGTDFTFTISSLQPEDIATYYCQQGNTLPYTFGQGTKVEIK
notes: also called anti-IL-6Rα antibody
In general, EC50 (read off the curve) refers to the concentration giving half of the maximal effect. Read a high EC50 (read off the curve) as a need for much substance. As for B2, the “EC50 (read off the curve)” value in test [4] is ~3 nM.
